In the experiment the target is His-tagged mouse BCMA (Acro Biosystems, BCA-M52H3) (mouse) (UniProt O88472). Briefly: ELISA, hybridoma supernatant, coated His-tagged antigen. On the technique in general: An ELISA detects its analyte on a solid surface through an enzyme-linked reagent.

For 1 molecule, ELISA values (OD 450 nm) results are on record in patent US20230374147A1.

His-tagged mouse BCMA (Acro Biosystems, BCA-M52H3) (mouse), sequence (O88472 1-49 limits assumed): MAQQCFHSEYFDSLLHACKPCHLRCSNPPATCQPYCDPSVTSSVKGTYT

B1: 539-SP5-D7 (antibody produced by the hybridoma) (antibody, V domains shown)
VH: EVMLVDSGGNLVKPGGSLKLSCAASGFTFSNYVISWVRQTPEKRLEWVATISTVGTNTYYPDSVRGRFTISRDNAENTLYLQMSSLRSEDTAIYYCSRHKYGYDDPSYAMDYWGQGTSVTVSS
VL: QLVLTQSSSASFSLGASAKLTCTLSSQHSTYTIEWYQQQPLKPPKYVMELKKDGSHSTGDGIPDRFSGSSSGADRYLSISNIQAEDEAIYICGVGDTVKEQFVYVFGGGTKVTVL
On to B1, for which the ELISA values (OD 450 nm) worked out at 0.025 OD.
